Reference: PMC9482650, “Quantitative fragmentomics allow affinity mapping of interactomes” (Nature Communications, 2022)
Where a chain is given by its changes, count along the chain named.

Key:
Experiment in all cases: holdup assay
Design in all cases: key: below the threshold = too weak to quantify, mostly under pKd 3.1 to 4
HTRA2, O43464 = molecular target: HTRA2, O43464
Inadl_1, Q8NI35 = molecular target: Inadl_1, Q8NI35
GORASP1, Q9BQQ3 = molecular target: GORASP1, Q9BQQ3
Inadl_2, Q8NI35 = molecular target: Inadl_2, Q8NI35
Chain of Inadl_2, Q8NI35 (Q8NI35 238-335): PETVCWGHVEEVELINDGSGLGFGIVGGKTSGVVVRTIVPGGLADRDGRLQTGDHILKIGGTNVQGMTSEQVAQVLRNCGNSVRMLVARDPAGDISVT

MAGI1_1, Q96QZ7 = molecular target: MAGI1_1, Q96QZ7
Chain of MAGI1_1, Q96QZ7 (Q96QZ7 1-106): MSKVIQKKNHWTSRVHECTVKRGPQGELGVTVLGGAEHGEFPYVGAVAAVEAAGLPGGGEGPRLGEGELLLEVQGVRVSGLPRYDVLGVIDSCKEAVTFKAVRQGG

AHNAK1, Q09666 = molecular target: AHNAK1, Q09666
Chain of AHNAK1, Q09666 (Q09666 4-100): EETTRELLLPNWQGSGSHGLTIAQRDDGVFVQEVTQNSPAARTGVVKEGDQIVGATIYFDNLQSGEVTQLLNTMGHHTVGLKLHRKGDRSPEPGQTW

MAST1, Q9Y2H9 = molecular target: MAST1, Q9Y2H9
Chain of MAST1, Q9Y2H9 (Q9Y2H9 962-1065): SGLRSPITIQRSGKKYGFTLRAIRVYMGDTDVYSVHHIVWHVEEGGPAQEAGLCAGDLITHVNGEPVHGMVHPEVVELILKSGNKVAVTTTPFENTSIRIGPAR

LIN7C, Q9NUP9 = molecular target: T1, LIN7C, Q9NUP9
T1 sequence (Q9NUP9 88-185, limits assumed, looked up): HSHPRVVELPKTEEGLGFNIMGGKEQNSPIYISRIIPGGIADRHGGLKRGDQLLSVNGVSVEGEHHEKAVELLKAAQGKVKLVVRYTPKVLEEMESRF

GRIP2_3, Q9C0E4 = molecular target: GRIP2_3, Q9C0E4
Chain of GRIP2_3, Q9C0E4 (Q9C0E4 238-339): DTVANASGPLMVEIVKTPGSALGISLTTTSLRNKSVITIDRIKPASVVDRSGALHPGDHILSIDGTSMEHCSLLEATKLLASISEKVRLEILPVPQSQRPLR

RADIL, Q96JH8 = molecular target: T2, RADIL, Q96JH8
T2 sequence (Q96JH8 971-1071, limits assumed, looked up): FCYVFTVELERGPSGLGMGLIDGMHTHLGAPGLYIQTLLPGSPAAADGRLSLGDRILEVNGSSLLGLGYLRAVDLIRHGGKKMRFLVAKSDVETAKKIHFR

Inadl_9, Q8NI35 = molecular target: Inadl_9, Q8NI35
Chain of Inadl_9, Q8NI35 (Q8NI35 1530-1615): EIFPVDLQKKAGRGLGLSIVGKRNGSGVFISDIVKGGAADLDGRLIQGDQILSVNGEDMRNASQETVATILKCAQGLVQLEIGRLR

DLG2_2, Q15700 = molecular target: DLG2_2, Q15700
Chain of DLG2_2, Q15700 (Q15700 189-283): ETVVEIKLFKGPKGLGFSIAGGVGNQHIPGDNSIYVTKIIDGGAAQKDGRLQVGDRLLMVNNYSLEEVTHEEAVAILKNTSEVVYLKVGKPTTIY

PARD3_3, Q8TEW0 = molecular target: PARD3_3, Q8TEW0
Chain of PARD3_3, Q8TEW0 (Q8TEW0 582-685): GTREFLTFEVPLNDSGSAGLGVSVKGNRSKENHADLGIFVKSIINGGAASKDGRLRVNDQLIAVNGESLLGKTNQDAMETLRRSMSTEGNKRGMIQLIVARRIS

DLG1_1, Q12959 = molecular target: DLG1_1, Q12959
SYNJ2BP, P57105 = molecular target: T3, SYNJ2BP, P57105
T3 sequence (P57105 8-110, limits assumed, looked up): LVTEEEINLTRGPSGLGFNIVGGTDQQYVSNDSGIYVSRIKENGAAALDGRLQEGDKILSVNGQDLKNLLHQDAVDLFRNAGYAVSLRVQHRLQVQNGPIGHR

PTPN3, P26045 = molecular target: PTPN3, P26045
Chain of PTPN3, P26045 (P26045 505-587): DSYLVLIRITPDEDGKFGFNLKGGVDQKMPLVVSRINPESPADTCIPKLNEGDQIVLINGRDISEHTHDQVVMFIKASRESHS

MAGI1_2, Q96QZ7 = molecular target: MAGI1_2, Q96QZ7
Chain of MAGI1_2, Q96QZ7 (Q96QZ7 456-580): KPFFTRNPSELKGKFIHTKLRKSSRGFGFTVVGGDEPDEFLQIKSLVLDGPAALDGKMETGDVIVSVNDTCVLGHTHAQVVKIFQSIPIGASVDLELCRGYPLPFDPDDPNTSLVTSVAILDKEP

NHERF2_2, Q15599 = molecular target: NHERF2_2, Q15599
Chain of NHERF2_2, Q15599 (Q15599 142-238): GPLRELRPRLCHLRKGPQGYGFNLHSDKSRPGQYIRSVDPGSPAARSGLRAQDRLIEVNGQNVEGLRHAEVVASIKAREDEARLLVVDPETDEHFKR

MAGI2_5, Q86UL8 = molecular target: MAGI2_5, Q86UL8
Chain of MAGI2_5, Q86UL8 (Q86UL8 915-1017): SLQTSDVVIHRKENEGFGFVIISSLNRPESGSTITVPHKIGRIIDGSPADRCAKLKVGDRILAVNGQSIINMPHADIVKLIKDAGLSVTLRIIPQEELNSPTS

GRIP1_5, Q9Y3R0 = molecular target: T4, GRIP1_5, Q9Y3R0
T4 sequence (Q9Y3R0 568-668, limits assumed, looked up): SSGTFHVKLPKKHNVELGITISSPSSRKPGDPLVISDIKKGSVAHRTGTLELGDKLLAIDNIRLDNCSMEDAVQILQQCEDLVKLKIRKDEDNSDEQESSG

DLG3_1, Q92796 = molecular target: T5, DLG3_1, Q92796
T5 sequence (Q92796 125-227, limits assumed, looked up): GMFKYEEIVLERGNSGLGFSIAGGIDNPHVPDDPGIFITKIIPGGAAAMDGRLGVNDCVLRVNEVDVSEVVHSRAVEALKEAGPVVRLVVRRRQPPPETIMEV

TJP3_3, O95049 = molecular target: T6, TJP3_3, O95049
T6 sequence (O95049 375-456, limits assumed, looked up): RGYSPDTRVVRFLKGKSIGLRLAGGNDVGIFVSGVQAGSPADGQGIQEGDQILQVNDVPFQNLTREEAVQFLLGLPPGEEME

SHANK1, Q9Y566 = molecular target: T7, SHANK1, Q9Y566
T7 sequence (Q9Y566 658-767, limits assumed, looked up): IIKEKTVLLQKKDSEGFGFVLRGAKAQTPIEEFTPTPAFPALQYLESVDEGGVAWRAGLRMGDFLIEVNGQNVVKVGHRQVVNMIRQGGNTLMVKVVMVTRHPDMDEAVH

APBA1_2, Q02410 = molecular target: T8, APBA1_2, Q02410
T8 sequence (Q02410 742-832, limits assumed, looked up): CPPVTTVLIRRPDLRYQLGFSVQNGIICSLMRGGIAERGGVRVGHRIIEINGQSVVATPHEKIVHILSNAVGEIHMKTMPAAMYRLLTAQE

LIN7A, O14910 = molecular target: T9, LIN7A, O14910
T9 sequence (O14910 103-200, limits assumed, looked up): T1 sequence (Q9NUP9 88-185, limits assumed, looked up) with E13D, I20V, I40V, D42E, Q77K, G78D, K79S, S96A

DLG4_2, P78352 = molecular target: DLG4_2, P78352
Chain of DLG4_2, P78352 (P78352 155-259): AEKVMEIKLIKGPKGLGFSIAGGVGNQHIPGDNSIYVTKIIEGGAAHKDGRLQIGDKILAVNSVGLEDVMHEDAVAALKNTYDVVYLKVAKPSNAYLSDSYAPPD

PARD3B_1, Q8TEW8 = molecular target: T10, PARD3B_1, Q8TEW8
T10 sequence (Q8TEW8 196-299, limits assumed, looked up): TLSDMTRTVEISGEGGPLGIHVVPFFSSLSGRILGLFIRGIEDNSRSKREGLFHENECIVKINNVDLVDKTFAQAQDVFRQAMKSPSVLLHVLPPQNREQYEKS

[1] = plain residues with an end cap or a label only (N-terminal biotin on a linker: ado-ado)
[2] = plain residues with an end cap or a label only (N-terminal biotin on a linker: ahx)

Chain of Inadl_1, Q8NI35 (Q8NI35 113-229): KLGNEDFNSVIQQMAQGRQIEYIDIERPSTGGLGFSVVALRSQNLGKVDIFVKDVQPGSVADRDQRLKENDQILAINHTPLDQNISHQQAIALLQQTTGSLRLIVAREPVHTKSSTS
Chain of HTRA2, O43464 (O43464 355-458): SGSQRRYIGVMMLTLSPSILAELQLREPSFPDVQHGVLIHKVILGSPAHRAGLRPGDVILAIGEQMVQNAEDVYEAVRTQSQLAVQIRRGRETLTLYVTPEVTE
Chain of GORASP1, Q9BQQ3 (Q9BQQ3 1-208): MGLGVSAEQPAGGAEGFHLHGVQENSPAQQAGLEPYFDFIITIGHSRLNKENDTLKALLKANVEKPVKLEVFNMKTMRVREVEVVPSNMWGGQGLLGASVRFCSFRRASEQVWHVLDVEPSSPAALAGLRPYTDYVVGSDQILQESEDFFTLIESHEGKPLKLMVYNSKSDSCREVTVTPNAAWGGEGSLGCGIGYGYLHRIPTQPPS

B1: HTR2A, P28223 (peptide)
chain: DGVNEKVSCV
pKd (HTRA2, O43464; [1]): below the threshold
pKd (Inadl_1, Q8NI35; [1]): below the threshold
pKd (GORASP1, Q9BQQ3; [1]): below the threshold
pKd (Inadl_2, Q8NI35; [1]): below the threshold
pKd (MAGI1_1, Q96QZ7; [1]): below the threshold
pKd (AHNAK1, Q09666; [1]): below the threshold
pKd (MAST1, Q9Y2H9; [1]): 3.65
pKd (LIN7C, Q9NUP9; [1]): 3.78
pKd (GRIP2_3, Q9C0E4; [1]): below the threshold
pKd (RADIL, Q96JH8; [1]): 4.53
pKd (Inadl_9, Q8NI35; [1]): below the threshold
pKd (DLG2_2, Q15700; [1]): 4.56
pKd (PARD3_3, Q8TEW0; [1]): below the threshold
pKd (DLG1_1, Q12959; [1]): 3.84
pKd (SYNJ2BP, P57105; [1]): 4.3
pKd (PTPN3, P26045; [1]): 4.86
pKd (MAGI1_2, Q96QZ7; [1]): below the threshold
pKd (NHERF2_2, Q15599; [1]): below the threshold
pKd (MAGI2_5, Q86UL8; [1]): 4.78
pKd (GRIP1_5, Q9Y3R0; [1]): below the threshold
pKd (DLG3_1, Q92796; [1]): below the threshold
pKd (TJP3_3, O95049; [1]): below the threshold
pKd (SHANK1, Q9Y566; [1]): below the threshold
pKd (APBA1_2, Q02410; [1]): 4
pKd (LIN7A, O14910; [1]): 3.51
pKd (DLG4_2, P78352; [1]): 4.74
pKd (PARD3B_1, Q8TEW8; [1]): below the threshold

B2: CGN, Q9P2M7 (peptide)
chain: TESNLQTSSC
pKd (HTRA2, O43464; [2]): below the threshold
pKd (Inadl_1, Q8NI35; [2]): below the threshold
pKd (GORASP1, Q9BQQ3; [2]): below the threshold
pKd (Inadl_2, Q8NI35; [2]): below the threshold
pKd (MAGI1_1, Q96QZ7; [2]): below the threshold
pKd (AHNAK1, Q09666; [2]): below the threshold
pKd (MAST1, Q9Y2H9; [2]): below the threshold
pKd (LIN7C, Q9NUP9; [2]): below the threshold
pKd (GRIP2_3, Q9C0E4; [2]): below the threshold
pKd (RADIL, Q96JH8; [2]): below the threshold
pKd (Inadl_9, Q8NI35; [2]): below the threshold
pKd (DLG2_2, Q15700; [2]): below the threshold
pKd (PARD3_3, Q8TEW0; [2]): below the threshold
pKd (DLG1_1, Q12959; [2]): below the threshold
pKd (SYNJ2BP, P57105; [2]): below the threshold
pKd (PTPN3, P26045; [2]): below the threshold
pKd (MAGI1_2, Q96QZ7; [2]): below the threshold
pKd (NHERF2_2, Q15599; [2]): below the threshold
pKd (MAGI2_5, Q86UL8; [2]): below the threshold
pKd (GRIP1_5, Q9Y3R0; [2]): below the threshold
pKd (DLG3_1, Q92796; [2]): below the threshold
pKd (TJP3_3, O95049; [2]): below the threshold
pKd (SHANK1, Q9Y566; [2]): below the threshold
pKd (APBA1_2, Q02410; [2]): below the threshold
pKd (LIN7A, O14910; [2]): below the threshold
pKd (DLG4_2, P78352; [2]): below the threshold
pKd (PARD3B_1, Q8TEW8; [2]): below the threshold

B3: CLDN3, O15551 (peptide)
chain: GTGYDRKDYV
pKd (HTRA2, O43464; [1]): below the threshold
pKd (Inadl_1, Q8NI35; [1]): below the threshold
pKd (GORASP1, Q9BQQ3; [1]): below the threshold
pKd (Inadl_2, Q8NI35; [1]): below the threshold
pKd (MAGI1_1, Q96QZ7; [1]): below the threshold
pKd (AHNAK1, Q09666; [1]): below the threshold
pKd (MAST1, Q9Y2H9; [1]): 4.03
pKd (LIN7C, Q9NUP9; [1]): below the threshold
pKd (GRIP2_3, Q9C0E4; [1]): below the threshold
pKd (RADIL, Q96JH8; [1]): 4.12
pKd (Inadl_9, Q8NI35; [1]): 3.93
pKd (DLG2_2, Q15700; [1]): below the threshold
pKd (PARD3_3, Q8TEW0; [1]): 3.52
pKd (DLG1_1, Q12959; [1]): below the threshold
pKd (SYNJ2BP, P57105; [1]): below the threshold
pKd (PTPN3, P26045; [1]): 4.04
pKd (MAGI1_2, Q96QZ7; [1]): below the threshold
pKd (NHERF2_2, Q15599; [1]): 3.6
pKd (MAGI2_5, Q86UL8; [1]): below the threshold
pKd (GRIP1_5, Q9Y3R0; [1]): below the threshold
pKd (DLG3_1, Q92796; [1]): below the threshold
pKd (TJP3_3, O95049; [1]): 3.73
pKd (SHANK1, Q9Y566; [1]): below the threshold
pKd (APBA1_2, Q02410; [1]): 4.24
pKd (LIN7A, O14910; [1]): below the threshold
pKd (DLG4_2, P78352; [1]): 3.63
pKd (PARD3B_1, Q8TEW8; [1]): 3.51

B4: KCNV1, Q6PIU1 (peptide)
chain: RSSGGDDFWF
pKd (HTRA2, O43464; [1]): below the threshold
pKd (Inadl_1, Q8NI35; [1]): below the threshold
pKd (GORASP1, Q9BQQ3; [1]): below the threshold
pKd (Inadl_2, Q8NI35; [1]): 4.28
pKd (MAGI1_1, Q96QZ7; [1]): below the threshold
pKd (AHNAK1, Q09666; [1]): below the threshold
pKd (MAST1, Q9Y2H9; [1]): 4.01
pKd (LIN7C, Q9NUP9; [1]): 4.1
pKd (GRIP2_3, Q9C0E4; [1]): below the threshold
pKd (RADIL, Q96JH8; [1]): below the threshold
pKd (Inadl_9, Q8NI35; [1]): below the threshold
pKd (DLG2_2, Q15700; [1]): below the threshold
pKd (PARD3_3, Q8TEW0; [1]): 4.97
pKd (DLG1_1, Q12959; [1]): below the threshold
pKd (SYNJ2BP, P57105; [1]): below the threshold
pKd (PTPN3, P26045; [1]): 4.35
pKd (MAGI1_2, Q96QZ7; [1]): below the threshold
pKd (NHERF2_2, Q15599; [1]): 4.69
pKd (MAGI2_5, Q86UL8; [1]): below the threshold
pKd (GRIP1_5, Q9Y3R0; [1]): below the threshold
pKd (DLG3_1, Q92796; [1]): below the threshold
pKd (TJP3_3, O95049; [1]): below the threshold
pKd (SHANK1, Q9Y566; [1]): below the threshold
pKd (APBA1_2, Q02410; [1]): below the threshold
pKd (LIN7A, O14910; [1]): below the threshold
pKd (DLG4_2, P78352; [1]): below the threshold
pKd (PARD3B_1, Q8TEW8; [1]): 4.48

B5: TIAM1, Q13009 (peptide)
chain: APSRKLNTEI
pKd (HTRA2, O43464; [2]): below the threshold
pKd (Inadl_1, Q8NI35; [2]): below the threshold
pKd (GORASP1, Q9BQQ3; [2]): below the threshold
pKd (Inadl_2, Q8NI35; [2]): below the threshold
pKd (MAGI1_1, Q96QZ7; [2]): below the threshold
pKd (AHNAK1, Q09666; [2]): below the threshold
pKd (MAST1, Q9Y2H9; [2]): below the threshold
pKd (LIN7C, Q9NUP9; [2]): below the threshold
pKd (GRIP2_3, Q9C0E4; [2]): below the threshold
pKd (RADIL, Q96JH8; [2]): below the threshold
pKd (Inadl_9, Q8NI35; [2]): below the threshold
pKd (DLG2_2, Q15700; [2]): below the threshold
pKd (PARD3_3, Q8TEW0; [2]): below the threshold
pKd (DLG1_1, Q12959; [2]): below the threshold
pKd (SYNJ2BP, P57105; [2]): below the threshold
pKd (PTPN3, P26045; [2]): below the threshold
pKd (MAGI1_2, Q96QZ7; [2]): below the threshold
pKd (NHERF2_2, Q15599; [2]): below the threshold
pKd (MAGI2_5, Q86UL8; [2]): below the threshold
pKd (GRIP1_5, Q9Y3R0; [2]): below the threshold
pKd (DLG3_1, Q92796; [2]): below the threshold
pKd (TJP3_3, O95049; [2]): below the threshold
pKd (SHANK1, Q9Y566; [2]): below the threshold
pKd (APBA1_2, Q02410; [2]): below the threshold
pKd (LIN7A, O14910; [2]): below the threshold
pKd (DLG4_2, P78352; [2]): 3.88
pKd (PARD3B_1, Q8TEW8; [2]): below the threshold
